Reference: paper doi:10.1101/2019.12.17.879908

Assays:
[1] = target: Dimethylformamidase (DMFase) large subunit expressed and purified without the small subunit (Paracoccus sp. strain DMF); assay: SEC
[2] = target: Dimethylformamidase (DMFase) α2β2 complex, recombinant wild type (Paracoccus sp. strain DMF); assay: cryo-EM structure

stoichiometry N [1]	stoichiometry N [2]	Substance
2	–	Dimethylformamidase (DMFase) large subunit expressed and purified without the small subunit (natural protein)
–	2	Dimethylformamidase (DMFase) α2β2 complex, recombinant wild type
